Data taken from the MegaScale stability set (Tsuboyama et al. 2023).

B1: HHH_rd2_0155 (parent)
chain: PPDDERKKAEKAARSGNEEKAREILERLGYSEDEARELAKRLR
B2: HEEH_KT_rd6_0007 (parent)
chain: SIEEEIKKAEEAKEKGKTFIHGDFVATTEELLDELLKRLRKKL

Variants of: B1
Test: folding stability dG (cDNA display proteolysis); higher = more stable
Settings: PBS, room temperature

Folding stability dG [kcal/mol] of substitutions, site by site:
R22: N 0.74
R41: F 1.91; H 1.66
R36: Q 1.34
L42: H 0.87
K7: G 1.76
D33: F 1.77; N 1.79
E23: G 1.4
E32: A 2.33; I 1.88
G16: E 0.965
R6: G 1.11; K 1.75; Y 3.31
A13: Y 1.35
L25: M 0.884
K20: L 2.97
L38: R 0.567
D4: L 2.22
P2: M 2.23
A39: G 0.397
K11: C 2.29
E34: I 1.44
S15: H 1.83; D 2.23

Variants of: B2
Test: as above
Settings: PBS, room temperature

Folding stability dG [kcal/mol], by site and new letter:
S1: A 1.21; D 1.24; E 1.11; F 1.23; G 1.11; H 1.13; I 0.975; K 1.14; L 1.23; M 1.16; N 1.19; P 1.01; Q 1.07; R 1.27; T 1.28; V 1.01; W 1.78; Y 1.36
I2: A 0.756; D 0.705; E 0.545; F 0.811; G 0.715; H 0.643; K 0.732; L 1.47; M 0.866; N 0.583; P 0.683; Q 0.766; R 0.776; S 0.818; T 0.763; V 1.08; W 1.04; Y 0.989
E3: A 1.27; D 1.01; F 1.23; G 0.881; H 1.12; I 1.36; K 1.16; L 1.52; M 1.45; N 0.919; P 0.866; Q 1.22; R 1.2; S 1.07; T 1.04; V 1.24; W 1.7; Y 1.28
E4: A 1.25; C 1.78; D 1.27; F 1.03; G 0.862; H 1.06; I 1.03; K 1; L 1.21; M 1.26; N 1.02; P 0.777; Q 1.11; R 1.07; S 1.12; T 0.909; V 0.909; W 1.27; Y 1.06
E5: A 2.05; D 1.23; F 1.74; G 0.897; H 1.11; I 2.4; K 1.06; L 2.35; M 2.05; N 1.05; P 0.677; Q 1.61; R 1.09; S 1.31; T 1.84; V 2.13; W 2.01; Y 1.56
I6: A 0.662; D 0.648; E 0.593; F 0.542; G 0.684; H 0.603; K 0.651; L 1.04; M 0.782; N 0.587; P 0.487; Q 0.793; R 0.719; S 0.742; T 0.576; V 0.729; W 0.615; Y 0.676
K7: A 1.31; C 1.38; D 0.626; E 0.935; F 0.95; G 0.824; H 1.06; I 1.01; L 1.14; M 1.16; N 0.942; P 0.656; Q 1.25; R 1.6; S 0.891; T 0.994; V 0.878; W 0.964; Y 0.923
K8: A 1.21; D 0.721; E 0.75; F 0.758; G 0.922; H 0.921; I 0.785; L 1.23; M 1.26; N 0.961; P 0.542; Q 1.22; R 1.42; S 0.904; T 0.724; V 0.672; W 1.02; Y 0.777
A9: C 1.78; D 0.579; E 0.511; F 0.698; G 0.708; H 0.516; I 1.5; K 0.705; L 1.44; M 0.926; N 0.608; P 0.556; Q 0.596; R 0.739; S 0.634; T 0.679; V 1.68; W 0.879; Y 0.662
E10: A 0.805; C 1.49; D 0.699; F 1.07; G 0.706; H 0.9; I 1.32; K 1.04; L 1.58; M 1.44; N 0.992; P 0.607; Q 1.2; R 1.02; S 0.844; T 1.06; V 1.17; W 1.06; Y 1
E11: A 1.16; C 1.5; D 1.27; F 0.946; G 0.705; H 0.939; I 1.03; K 0.817; L 1.1; M 1.05; N 0.868; P 0.576; Q 1.06; R 0.941; S 0.928; T 1.04; V 0.953; W 1.2; Y 1.17
A12: C 1.78; D 0.737; E 0.703; F 0.689; G 0.482; H 0.753; I 0.771; K 0.526; L 0.688; M 0.749; N 0.603; P 0.459; Q 0.606; R 0.639; S 0.754; T 0.618; V 0.505; W 0.691; Y 0.791
K13: A 0.86; C 1.82; D 0.676; E 0.58; F 0.912; G 0.684; H 0.747; I 0.852; L 1.16; M 1.01; N 0.575; P 0.543; Q 0.869; R 1.3; S 0.704; T 0.5; V 0.79; W 1.09; Y 1.07
E14: A 1.73; D 1.1; F 1.31; G 1.19; H 1.21; I 1.45; K 1.56; L 1.58; M 1.42; N 1.21; P 0.587; Q 1.42; R 1.68; S 1.4; T 1.3; V 1.25; W 1.37; Y 1.33
K15: A 1.33; D 0.807; E 0.916; F 1.15; G 1.08; H 1.3; I 0.793; L 1.4; M 1.37; N 1.32; P 0.667; Q 1.4; R 1.19; S 1.19; T 1.29; V 0.735; W 1.07; Y 1.13
G16: A 0.667; D 0.785; E 0.895; F 1.2; H 1.25; I 1.03; K 1.3; L 1.22; M 0.701; N 1.08; P 0.298; Q 0.935; R 0.873; S 0.957; T 0.757; V 0.73; W 1.3; Y 1.12
K17: A 1.23; C 2.53; D 1.19; E 1.67; F 1.82; G 1.48; H 1.44; I 1.59; L 1.9; M 1.66; N 1.36; P 0.793; Q 1.47
